Measured values as given in PMC4474532 (2015).

B1: BiP (natural protein)
chain: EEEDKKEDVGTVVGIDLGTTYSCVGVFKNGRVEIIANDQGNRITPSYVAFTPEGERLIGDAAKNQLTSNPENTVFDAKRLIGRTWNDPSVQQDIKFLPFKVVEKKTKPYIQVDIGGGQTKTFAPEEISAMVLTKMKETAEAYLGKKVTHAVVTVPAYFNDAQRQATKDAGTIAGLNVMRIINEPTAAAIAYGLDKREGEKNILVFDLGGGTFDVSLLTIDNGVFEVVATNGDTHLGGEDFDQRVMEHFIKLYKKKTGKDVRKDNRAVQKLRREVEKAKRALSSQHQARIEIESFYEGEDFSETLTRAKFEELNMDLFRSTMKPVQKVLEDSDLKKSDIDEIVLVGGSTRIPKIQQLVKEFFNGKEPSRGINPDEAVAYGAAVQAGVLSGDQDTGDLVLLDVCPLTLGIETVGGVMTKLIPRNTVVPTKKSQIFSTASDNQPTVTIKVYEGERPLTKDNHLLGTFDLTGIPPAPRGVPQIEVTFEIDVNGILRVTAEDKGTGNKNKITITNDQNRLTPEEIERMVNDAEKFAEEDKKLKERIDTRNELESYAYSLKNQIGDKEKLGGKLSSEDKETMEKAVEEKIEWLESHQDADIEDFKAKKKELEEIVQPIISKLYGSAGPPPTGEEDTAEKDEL

Assays:
Experiment in all cases: MST
[1] = molecular target: PERK luminal domain A378N (human, UniProt Q9NZJ5 105-403, A378N)
[2] = molecular target: PERK luminal domain L395N (human, UniProt Q9NZJ5 105-403, L395N)
BiP = molecular target: B1
Chain of BiP (P11021 19-654): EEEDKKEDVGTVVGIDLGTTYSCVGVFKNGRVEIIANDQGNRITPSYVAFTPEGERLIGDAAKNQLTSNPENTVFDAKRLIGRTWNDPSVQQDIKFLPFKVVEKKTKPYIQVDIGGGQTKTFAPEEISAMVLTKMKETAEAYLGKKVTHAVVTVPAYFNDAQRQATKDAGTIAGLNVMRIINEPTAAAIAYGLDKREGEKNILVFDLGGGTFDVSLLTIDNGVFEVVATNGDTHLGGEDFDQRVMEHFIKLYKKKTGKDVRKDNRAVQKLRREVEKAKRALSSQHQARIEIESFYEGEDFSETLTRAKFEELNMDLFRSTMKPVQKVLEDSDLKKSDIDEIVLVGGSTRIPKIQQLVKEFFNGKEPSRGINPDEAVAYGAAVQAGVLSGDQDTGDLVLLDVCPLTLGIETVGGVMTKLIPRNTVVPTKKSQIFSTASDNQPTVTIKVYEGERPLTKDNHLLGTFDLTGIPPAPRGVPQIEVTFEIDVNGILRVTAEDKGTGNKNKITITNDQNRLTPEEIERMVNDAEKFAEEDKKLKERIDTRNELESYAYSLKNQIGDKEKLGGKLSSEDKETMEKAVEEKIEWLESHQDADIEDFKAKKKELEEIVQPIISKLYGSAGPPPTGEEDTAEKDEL

Binder | Kd [1] [nM] | Kd [2] [nM] | Kd (BiP) [nM]
B1 | 2300 | 1800 | 
human PERK luminal domain (residues 105–403) (domain or fragment) LVIISTLDGRIAALDPENHGKKQWDLDVGSGSLVSSSLSKPEVFGNKMIIPSLDGALFQWDQDRESMETVPFTVESLLESSYKFGDDVVLVGGKSLTTYGLSAYSGKVRYICSALGCRQWDSDEMEQEEDILLLQRTQKTVRAVGPRSGNEKWNFSVGHFELRYIPDMETRAGFIESTFKPNENTEESKIISDVEEQEAAIMDIVIKVSVADWKVMAFSKKGGHLEWEYQFCTPIASAWLLKDGKVIPISLFDDTSYTSNDDVLEDEEDIVEAARGATENSVYLGMYRGQLYLQSSVRI |  |  | 2000
